This series can be described thus: self-splicing fitness, log relative to wild type (ln ratio); higher = more splicing; Tetrahymena group I intron in knt gene, E. coli kanamycin selection, DiMSum; sequences stand for … in CUCUCU…GGAGGGAAAAGUUAUCAGGCAUGCACCUGGUAGCUAGUCUUUAAACCAAUAGAUUGCAUCGGUUUAAAAGGCAAGACCGUCAAAUUGCGGGAAAGGGGUCAACAGCCGUUCAGUACCAAGUCUCAGGGGAAACUUUGAGAUGGCCUUGCAAAGGGUAUGGUAAUAAGCUGACGGACAUGGUCCUAACCACGCAGCCAAGUCCUAAGUCAACAGAUCUUCUGUUGAUAUGGAUGCAGUUCACAGACUAAAUGUCGGUCGGGGAAGAUGUAUUCUUCUCAUAAGAUAUAGUCGGACCUCUCCUUAAUGGGAGCUAGCGGAUGAAGUGAUGCAACACUGGAGCCGCUGGGAACUAAUUUGUAUGCGAAAGUAUAUUGAUUAGUUUUGGAGUACUCGUGGUCG
The procedure, abridged:
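Pooled colonies went to amplicon sequencing on an Illumina HiSeq 2500 after six replicate transformations. The plates were LB agar with 100 μg/mL carbenicillin, 50 μM IPTG and 0.2% rhamnose, with or without 25 μg/mL kanamycin, incubated overnight at 37°C or 30°C. The E. coli BL21(DE3) library had all eight P1ex-region intron nucleotides randomised, the intron placed in the knt kanamycin-resistance gene on pET-22b(+). DiMSum fitness is the error-weighted combination of replicate fold changes, kanamycin against none, normalised to wild type.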

± gives the uncertainty stated by the source.

On to ACCCAGCAAUAUUACGUAUU, for which the “self-splicing fitness (ln)” value is, setting by setting: (30 °C) -1.93 ± 0.069; (37 °C) -0.714 ± 0.077.
The corresponding values for ACUGAGCAAUAUUACGCGAG are -2.27 ± 0.1 and -1.11 ± 0.096.
The corresponding values for GAGUAGCAAUAUUACGAAAC are -2.82 ± 0.32 and -2.56 ± 0.27.
On the same counts, the results for CACCAGCAAUAUUACGGUUA are -0.251 ± 0.068 and -0.0422 ± 0.09.
As for UCGCAGCAAUAUUACGAGUC, the “self-splicing fitness (ln)” value (37 °C) was -2.6 ± 0.38.
Consider CAGAAGCAAUAUUACGCCCA, for which the “self-splicing fitness (ln)” value runs as follows: (30 °C) -1.97 ± 0.15; (37 °C) -0.986 ± 0.16.
The corresponding values for UCCGAGCAAUAUUACGUGGU are -2.83 ± 0.29 and -2.29 ± 0.21.
Turning to UUCGAGCAAUAUUACGGGUU, the “self-splicing fitness (ln)” value by setting is: (30 °C) -3.21 ± 0.22; (37 °C) -2.78 ± 0.35.
Consider AAUUAGCAAUAUUACGCCAG, for which the “self-splicing fitness (ln)” value (37 °C) was -2.11 ± 0.31.
The same measure, in the same setting: next, CAGGAGCAAUAUUACGACAA: -1.73 ± 0.41.
With CUAAAGCAAUAUUACGUCCG, the “self-splicing fitness (ln)” value is, setting by setting: (30 °C) 0.264 ± 0.12; (37 °C) 0.68 ± 0.16.
The corresponding values for CCAUAGCAAUAUUACGCCCA are -1.9 ± 0.34 and -1.86 ± 0.35.
The corresponding values for CCUUAGCAAUAUUACGAGAA are -2.19 ± 0.38 and -2.79 ± 0.47.
The corresponding values for AUCUAGCAAUAUUACGUGCG are -1.47 ± 0.21 and -0.647 ± 0.17.
As to UGAGAGCAAUAUUACGCGCG, the “self-splicing fitness (ln)” value is -2.15 ± 0.2 (30 °C) and -1.23 ± 0.24 (37 °C).
The corresponding values for CGGCAGCAAUAUUACGCAGA are -3.27 ± 0.31 and -2.48 ± 0.22.
The corresponding values for CUGCAGCAAUAUUACGUCGA are -3.05 ± 0.12 and -1.65 ± 0.1.
Consider CGGGAGCAAUAUUACGCGGU, for which the “self-splicing fitness (ln)” value (37 °C) was -1.72 ± 0.29.
Consider GUCUAGCAAUAUUACGCGGA, for which the “self-splicing fitness (ln)” value was -2.61 ± 0.33 (30 °C) and -2.07 ± 0.27 (37 °C).
On the same counts, the results for UGGCAGCAAUAUUACGCGUA are -0.0648 ± 0.084 and -0.33 ± 0.087.
The corresponding values for UGGGAGCAAUAUUACGUGGA are -2.94 ± 0.44 and -2.11 ± 0.2.
On the same counts, the results for GGCGAGCAAUAUUACGGGUA are -3.42 ± 0.26 and -2.79 ± 0.2.
Take GCUCAGCAAUAUUACGCGAG: the “self-splicing fitness (ln)” value runs as follows: (30 °C) -2.78 ± 0.13; (37 °C) -2.18 ± 0.17.
The corresponding values for CCAGAGCAAUAUUACGGAAA are -3.62 ± 0.32 and -2.19 ± 0.27.
On the same counts, the results for UAUGAGCAAUAUUACGCACC are -1.68 ± 0.49 and -0.807 ± 0.36.
The corresponding values for GGCCAGCAAUAUUACGAAAU are -2.92 ± 0.34 and -1.04 ± 0.18.
For CUAAAGCAAUAUUACGGCGA, the “self-splicing fitness (ln)” value is, setting by setting: (30 °C) -3.59 ± 0.25; (37 °C) -1.96 ± 0.19.
On the same counts, the results for UCUAAGCAAUAUUACGCUUC are -3.47 ± 0.3 and -1.9 ± 0.31.
Take GUGCAGCAAUAUUACGUUCU: the “self-splicing fitness (ln)” value (30 °C) is -1.1 ± 0.1 and the “self-splicing fitness (ln)” value (37 °C) was determined as 0.673 ± 0.097.
On the same counts, the results for ACAUAGCAAUAUUACGUUAG are -3.66 ± 0.17 and -1.66 ± 0.14.
On the same counts, the results for AUCCAGCAAUAUUACGUACA are -1.28 ± 0.11 and -0.729 ± 0.18.
The corresponding values for UCUUAGCAAUAUUACGUCUA are -3.59 ± 0.31 and -2.19 ± 0.2.
As for GAAUAGCAAUAUUACGUAAG, the “self-splicing fitness (ln)” value is, setting by setting: (30 °C) -2.32 ± 0.14; (37 °C) -0.886 ± 0.18.
The corresponding values for UAUAAGCAAUAUUACGUACC are -2.51 ± 0.19 and -1.2 ± 0.16.
With AGCUAGCAAUAUUACGACAA, the “self-splicing fitness (ln)” value is -1.68 ± 0.18 (30 °C) and -1.34 ± 0.15 (37 °C).
On the same counts, the results for CUAGAGCAAUAUUACGACAU are -3.918 ± 0.03 and -2.71 ± 0.043.
Regarding CACUAGCAAUAUUACGACAA, the “self-splicing fitness (ln)” value was -3.16 ± 0.37 (30 °C) and -2.06 ± 0.29 (37 °C).
On the same counts, the results for CAGAAGCAAUAUUACGAAUA are -2.43 ± 0.27 and -1.84 ± 0.24.
On the same counts, the results for AGCUAGCAAUAUUACGUCUU are -0.517 ± 0.098 and 0.46 ± 0.14.

The values above are taken from the supplement of paper PMC7877785.
